Experimental data published in IntAct's records for PubMed 22252131.

How the values were obtained:
[1] = target: hakai_mouse Cbll1 (UniProt Q9JIY2)
[2] = target: hakai_mouse Cbll1 (UniProt Q9JIY2); remark: listed apart in the source
[3] = target: hakai_mouse Cbll1 (UniProt Q9JIY2); remark: listed apart in the source
[4] = target: hakai_mouse Cbll1 (UniProt Q9JIY2); remark: listed apart in the source

Sequence of hakai_mouse Cbll1 (Q9JIY2 whole entry): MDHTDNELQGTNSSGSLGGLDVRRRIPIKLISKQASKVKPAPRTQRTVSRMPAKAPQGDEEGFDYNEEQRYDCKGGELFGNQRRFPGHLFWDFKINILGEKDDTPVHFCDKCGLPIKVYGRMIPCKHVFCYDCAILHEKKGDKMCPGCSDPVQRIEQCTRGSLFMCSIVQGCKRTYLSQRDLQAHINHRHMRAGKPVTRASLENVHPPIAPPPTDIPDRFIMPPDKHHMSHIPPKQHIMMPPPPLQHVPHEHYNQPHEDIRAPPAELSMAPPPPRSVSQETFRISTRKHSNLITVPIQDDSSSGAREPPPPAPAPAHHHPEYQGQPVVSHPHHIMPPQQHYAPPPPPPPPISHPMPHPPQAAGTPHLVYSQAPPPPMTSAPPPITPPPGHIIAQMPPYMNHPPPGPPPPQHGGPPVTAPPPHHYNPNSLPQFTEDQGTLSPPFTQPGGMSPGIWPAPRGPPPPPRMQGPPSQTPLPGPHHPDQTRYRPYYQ
Sequence of Src substrate cortactin (Mus musculus), Q60598 Y482F (Q60598 whole entry Y482F): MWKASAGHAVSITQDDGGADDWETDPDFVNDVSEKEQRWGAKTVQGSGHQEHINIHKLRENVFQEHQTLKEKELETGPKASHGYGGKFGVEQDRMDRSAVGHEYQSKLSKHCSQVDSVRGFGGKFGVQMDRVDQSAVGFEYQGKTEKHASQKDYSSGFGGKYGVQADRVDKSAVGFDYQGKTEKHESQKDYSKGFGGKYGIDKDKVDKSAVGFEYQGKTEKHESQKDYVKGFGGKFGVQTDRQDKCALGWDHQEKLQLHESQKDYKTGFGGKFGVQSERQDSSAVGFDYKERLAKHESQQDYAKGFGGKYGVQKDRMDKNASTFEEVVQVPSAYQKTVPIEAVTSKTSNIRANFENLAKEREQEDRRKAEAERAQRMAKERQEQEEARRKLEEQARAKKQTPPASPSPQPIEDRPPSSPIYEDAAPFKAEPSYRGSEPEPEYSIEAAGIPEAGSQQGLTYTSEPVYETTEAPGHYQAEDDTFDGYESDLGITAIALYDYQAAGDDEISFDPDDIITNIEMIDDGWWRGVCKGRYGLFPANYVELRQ
Sequence of Src substrate cortactin (Mus musculus), Q60598 E478A (Q60598 whole entry E478A): as the sequence (Q60598 whole entry Y482F) above, with E478A, F482Y counted along it
Sequence of Src substrate cortactin (Mus musculus), Q60598 D480A (Q60598 whole entry D480A): as the sequence (Q60598 whole entry Y482F) above, with D480A, F482Y counted along it

Src substrate cortactin (Mus musculus), Q60598 D480A
effect of a mutation on the interaction [1]: decreasing interaction

Src substrate cortactin (Mus musculus), Q60598 E478A
effect of a mutation on the interaction [2]: decreasing interaction

Src substrate cortactin (Mus musculus), Q60598 E486A
effect of a mutation on the interaction [3]: disrupting interaction

Src substrate cortactin (Mus musculus), Q60598 Y482F
effect of a mutation on the interaction [4]: disrupting interaction
